The data set in a line: yeast display, Sf9 membrane polyspecificity reagent, FACS + sequencing; frameworks hold sequencing errors. Summed up: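 After 36–48 hours of galactose induction, yeast (Saccharomyces cerevisiae BJ5465) displaying a synthetic nanobody library were stained at 4 °C for 1 hour with 10% biotinylated, detergent-solubilized Sf9 membrane reagent. Streptavidin microbeads enriched the stained cells before FACS sorting into low and high (top ~1%) gates on anti-HA and streptavidin fluorescence. Each clone's polyreactivity label reflects its gate of origin.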
In the case of “QFHLVESGGGLVQAGGSLRLSCAASGSNILYYVMGWYRQAPRKERELVAAITWDGGSTYYADSVKGRFTISRDNAKNTVYLELNSLIPEDTAVYYCNKVTTYSYYTEPYEYWGQGTQVTVSS”, the “polyreactivity (PSR sort gate)” value is reported as “low polyreactivity”. With “QFHLVESVGGLFQAGGSLRLSSAASGRNFSIYAMGWYRQAPGKERELVAAISWSGGRTYYADSVKGRFTISRDTAKNTVYLQMNSLKPEDTAVYYCNAENGWADYYRSDYWGQGTQVTVSS”, the “polyreactivity (PSR sort gate)” value is listed as “high polyreactivity”. With “QFQIVESGGGLVQAGGSLRISCAASVFIFARYAIGWYRQAHGKEREFVAAISSSGGSTYYADSVKGRFTISRDNAKNTVYLQMNSLKPADTAVYYCNVRLRIRSGYWGQGSQVTVSS”, the “polyreactivity (PSR sort gate)” value is “high polyreactivity”. With “QFQIVESGGGLVQAGGSLRLSCASSGLIFYKYAMGWYRQAPGKERELVARISYTGGITSYADSVKGRFTISRDNAKNTVYLQMNSLKPEDTAVYYCAARYTRPFGPFDYWGQGTQVTVSS”, the “polyreactivity (PSR sort gate)” value is reported as “low polyreactivity”. As for “QFQLEESGGGLVQAGGSLRLSCAASGSTFWYNAMGWYRQAPGKERELVAAISRSGATTYYADSVKGRFTISRDNAKNTVYLQMNSLKPEDTAVYYCNAVISPSSYVRNSDYWGQGTQVTVSS”, the entry is “low polyreactivity”; as for “QFQLEESGRGLVQAGGSLRLSCAASGRIFRYYAMGWYRQAPGKERELVAGISWRGSSTYYADSVKGRFTISRDNAKNTVYLQMNSLKPEDTAVYYCAARKASGRFGYWGQGTQVTVSS”, “high polyreactivity”; as for “QFQLEESRRGLDQAGGSLRLSCAASGSIFTLYDMGWYRQAPGKERELVAAITSGGSTDYADSVKGRFTISRDKAKNTVFLQMNSLKPEDTAVYYCAADTFYIYEDVLYVQGDYYWGQGTQVTVSS”, “low polyreactivity”. As for “QFQLGESVGGLVQAGGSLRLSCAGYGSIFLGKAMGWYREATGKEMEFVDAIRISGGSTYYADSVKGRFTISRDNAQYTVYIQMNILKPEDTAVYYCAKFGPRASLYRTGRYYWGQGTQVTVSS”, the entry is “high polyreactivity”. As for “QFQLLESGRGLVQAGGSLRLSCAASGRTYNVNAMGWYRKAPGKERELVASISSGTSTNYADSVKGRFTITRDNAKNTVYLQLNRLNREDTAVYYCNADFVWNGYSGRIRDYYWGQATQVTVSS”, the entry is “low polyreactivity”; as for “QFQLVDSGGGLVQAGGSLSLICAASGLIFYTYAMGWYRQAPGKERELVAAISRTRVSTYYADSVKGRFTISRDNAKNTVYLQMNSLKPEYTAVYYCATSRYLKLGYDYWGQGTQVTVSS”, “high polyreactivity”.

As for “QFQLVDSGGSLVQAGSSLPLSCPASGRTFPYNVMGWYRQAPGKERELFASIDGSGGSTYYADSVKGRFTISRDYAKNTVYLQMNSLNPVDTAVYYCAAVYYQSGNYWYGYLGQSPYDYWGLGTQVTVSS”, the “polyreactivity (PSR sort gate)” value is given as “low polyreactivity”. Turning to “QFQLVEAGGGLVQAGGSLRLSCAASGSIFTYAMGWYRQAPGKEREFVAAISRSGGRTYYADSVKGRFTMSRDNAKNTVYFQMNSLKPDDTAVYYCAPLLLKDYDYWGQGTQVTVSS”, the “polyreactivity (PSR sort gate)” value is listed as “low polyreactivity”. For the sequence “QFQLVESGGGLDQAGGSLRLSCAASGITVYYYALGCYRQAPGKERELVAAITSSGGSTYYADSVKGRFTISRDNAKNTVYLQMNSLKPEDTAVYYCAARSYRGSSTYQGHGYWGQGTQVTVSS”, the “polyreactivity (PSR sort gate)” value is “high polyreactivity”. As for “QFQLVESGGGLDQAGGSLRLSCAASGSIFSYYDMGGDRQAPGKDRELVAGNSRGGSTNYADSVKGRFTISRDNAKKTVYLQMNSLKPEDTAVYYCNADQSSRTYPFRLSRRSWLYGYWGQGTQVTVSS”, the entry is “low polyreactivity”; as for “QFQLVESGGGLDQARGSLRLTCAASGSIFARNAMGWYRQAPGKERELVAAITYSGGNTYYADSVKGRFTISRDNAKNTVYLQMNSLKPEDTAVYYCNKDWYPTYAAYNYYYWGQGTQVTVSS”, “high polyreactivity”.

For the sequence “QFQLVESGGGLFQAGARLRLSSAASGNIFNWYALGLYRQAPGKEREFVACISTSGGSTYYADSVKGRFTISRDNAKNSVYLQMNSLKPEDTAVYYCNAKFFVYECLPGPSYWYDYWGQGTQVTVSS”, the “polyreactivity (PSR sort gate)” value was “high polyreactivity”. For the sequence “QFQLVESGGGLFQAGGILRLSCAASGRNFLYNAMGWDRQAPGKERELVAAISSRGARTYYADSVKGRFTISRDNAKNTVYFQMNSLKPEDTAVYYCATDSYRYDGIQYLYEYYYWGQGTQVTVSS”, the “polyreactivity (PSR sort gate)” value is on record as “high polyreactivity”.

As to “QFQLVESGGGLLQAGGSLRLSCAASGSTFYRYVMGWYRQATGKERELVAAITWRGGTTYYADSVKGRFTISRDNAKNTVYLKMISLKPDDTAVYYCNADRGGLRWFWQVLYDYWGQGTQVTVSS”, the “polyreactivity (PSR sort gate)” value was “low polyreactivity”. On to “QFQLVESGGGLVQAGGSHRLICAASGRTFPYYAKGWYRQAPGKERELVATINTGTSTNYADSVKGRFTISRDNANNTVYLQMHSLKPEDTAVYYCAAATTYGKSEYDYWGQGTQVTVSS”, for which the “polyreactivity (PSR sort gate)” value is given as “high polyreactivity”.

For “QFQLVESGGGLVQAGGSLGLSCAASGRSFAQYTMGWYRQAPGKERELVAAISWSGTSTYYADSVKGRFTISRDNAKNTVSLQMNSLKPEDTAVYYCAALGRYSVEYGYWGQGTQVTVSS”, the “polyreactivity (PSR sort gate)” value is “high polyreactivity”. As to “QFQLVESGGGLVQAGGSLRISCAASGSIFRRYAMGWYRQAPWKERELVATISSGTTTNYADSVKGRFTISRDNANNSVYLQLNSLKPEDTSVFYCAAVVYGHIRGPGERKSYWGQGTQVTVSS”, the “polyreactivity (PSR sort gate)” value is “high polyreactivity”.

As to “QFQLVESGGGLVQAGGSLRISCDASGRTFWYYTMGWYRKAPGKERELVASITYRGGSTYYADSVKGRFTISRDNAKNTVYLQMNSLKPEDTAVYYCNKPYFTASGDRFGYWGQGTQVTVSS”, the “polyreactivity (PSR sort gate)” value is listed as “low polyreactivity”. Take “QFQLVESGGGLVQAGGSLRLSCAASAGNFNRYAMGWYRQAPGKEMELVAAISSSGGPTYYADSVKGRFTISRDNAKNTVYLQMNSLKPEDSAVYYCNARYPRLHRTYNYWGQGTQVTVSS”: the “polyreactivity (PSR sort gate)” value was “high polyreactivity”. Consider “QFQLVESGGGLVQAGGSLRLSCAASARTFVSNAMGWDRQAPGKERELVADITSGGSTDYADSVKGRFTSSRDNAKNTVYVQMNSVKPEDTAVSYCATDLWRWYGWFDYWGQGTQVTVSS”, for which the “polyreactivity (PSR sort gate)” value was “low polyreactivity”. As for “QFQLVESGGGLVQAGGSLRLSCAASASTYYYYVMGWSIQAPVKEREVVAAITRSTGSTYYADSVKGRFTISRDNAKNTVYLNKNSLKPEETSVYYCAAEGPKWYYSGAFDYWGQGSQVTVSS”, the entry is “low polyreactivity”; as for “QFQLVESGGGLVQAGGSLRLSCAASGFIFTNVMGWYRQSPGKERELVAAISGRGTSTYYADSVKGRFTISRDNAKNTVYLQMNSLKPEDTAVYYCAAYFTSRLDYWGQGTQVTVSS”, “high polyreactivity”.

As for “QFQLVESGGGLVQAGGSLRLSCAASGIISSVYAMGWYRQAPGKERELVAAISGSGGSTYYADSVKGRFTISRDNAKNTVYLQMNSLKPEDTAVYYCAKGYQYQGNSYGYWGQGTQVTVSS”, the “polyreactivity (PSR sort gate)” value was “low polyreactivity”.

For “QFQLVESGGGLVQAGGSLRLSCAASGITFDVNAMGCYIQAPGKERELVASITAGGNTYYSDSVKGRFTISRDNAKNTVYLQMNSLKPVDTAVYFCAAVSTSLYCAGYDYWGQGTQVTVSS”, the “polyreactivity (PSR sort gate)” value was “low polyreactivity”. Take “QFQLVESGGGLVQAGGSLRLSCAASGITFGDNAMGWYRQAPGKERELVAAISWSGDRTFYADSVKGRFTISRDNAKNTVYLQMNSLKPEDTAVYYCNAEIGWHNEGRLSTYDYWGQGTQVTVSS”: the “polyreactivity (PSR sort gate)” value was “low polyreactivity”.

On to “QFQLVESGGGLVQAGGSLRLSCAASGITFRAYAMGWYRQAPGKERELVAAITGRFGRTYYADSVKGRFTISRDNENNSVYLQMNSLKPEDTAVYYCNAYLWRVTQTYDYWGQGTQVTVSS”, for which the “polyreactivity (PSR sort gate)” value is “high polyreactivity”.

The record behind these values is the nanobody polyreactivity screen of Harvey et al. (2022).
